From paper PMC9992173, “Mapping of the extracellular RBP4 ligand binding domain on the RBPR2 receptor for Vitamin A transport” (Frontiers in Cell and Developmental Biology, 2023)

Legend:
[1] = target: Recombinant mouse RBP4 with 6XHis Tag (mouse) (UniProt Q00724); assay: SPR; mouse RBP4 amine-coupled to a CM5 chip (target 1,200 RU), Biacore S200; peptides as analytes, 0.8-26.6 uM; running buffer PBST (0.05% Tween20); 25 C; contact 120 s, dissociation 300 s; Kd from the site-specific binding fit Y=(Bmax*X)/(Kd+X)
RBP4 = RBP4 (UniProt P02753); details: cited from earlier work

With “mouse RBPR2-Y295P mutant peptide (from UniProt Q9DBN1 280-321)” the Kd [1] was 34.9 µM.

In the case of “mouse RBPR2-L296S mutant peptide (from UniProt Q9DBN1 280-321)”, the Kd [1] is reported as 21.3 µM.

With “mouse RBPR2-S294A mutant peptide (from UniProt Q9DBN1 280-321)” the Kd [1] was 89.3 µM.

In the case of STRA6 (from UniProt Q9BX79), the Kd (RBP4) is given as 22.4 µM.
